This note sets out measurements from patent publication US20200270325A1 (Merck Sharp & Dohme, published 2020).

Numbered stars: 1 amine (or outer) side, 2 acyl side, 3 side chain; on linkers, the order of the positions; unused ones are H or OH. Square brackets hold non-standard residues; d marks the D form. Side chains are listed from the residue outwards. Ends that are not written are not given here. * marks the point of attachment. Phe(4-CH2NH2) = NCc1ccc(C[C@H](N)C(=O)O)cc1; C18 diacid = O=C(O)CCCCCCCCCCCCCCCCC(=O)*; C16 diacid = O=C(O)CCCCCCCCCCCCCCC(=O)*; γGlu = O=C(O)[C@H](CCC(=O)[*:2])N[*:1]; Met(O2) = CS(=O)(=O)CC[C@H](N)C(=O)O; αMeD = C[C@](N)(CC(=O)O)C(=O)O; αMeS = C[C@](N)(CO)C(=O)O; AEEA = NCCOCCOCC(=O)O; Aib = CC(C)(N)C(=O)O

Test [1] addresses human Glucagon receptor (GCGR) (human, UniProt P47871 26-477). As to the kind of experiment: cell-based or functional assay.
Test [2] concerns the target human GLP-1 receptor (GLP1R) (human, UniProt P43220 24-463). As to the kind of experiment: cell-based or functional assay.

human Glucagon receptor (GCGR), sequence (P47871 26-477): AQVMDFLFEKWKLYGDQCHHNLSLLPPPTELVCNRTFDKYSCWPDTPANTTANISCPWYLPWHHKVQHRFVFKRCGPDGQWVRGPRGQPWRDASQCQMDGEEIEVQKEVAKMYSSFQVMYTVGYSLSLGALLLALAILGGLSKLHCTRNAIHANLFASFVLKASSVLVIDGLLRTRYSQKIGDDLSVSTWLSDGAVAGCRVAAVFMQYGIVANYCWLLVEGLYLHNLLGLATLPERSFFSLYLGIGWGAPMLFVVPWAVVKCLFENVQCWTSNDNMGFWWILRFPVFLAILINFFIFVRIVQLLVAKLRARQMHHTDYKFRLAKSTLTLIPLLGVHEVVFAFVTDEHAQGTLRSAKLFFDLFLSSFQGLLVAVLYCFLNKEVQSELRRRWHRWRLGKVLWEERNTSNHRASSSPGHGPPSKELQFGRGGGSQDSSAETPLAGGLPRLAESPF

Consider H[Aib]QGTFTSD[Phe(4-CH2NH2)]([AEEA-AEEA-γGlu-C16 diacid])SKYLD[Aib]RAAQDFVQWLL[αMeD]TK-{γGlu-NH2} [TP657], for which the “GCGR EC50 human” value in test [1] is 0.14 nM. Besides, the “GLP1R EC50 human” value in test [2] turned out to be 2.18 nM.

With H[αMeS]QGTFTSD[Phe(4-CH2NH2)]([AEEA-AEEA-γGlu-C16 diacid])SKYLD[Aib]RAAQDFVQWLLATK-{γGlu-NH2} [TP660], the “GCGR EC50 human” value in test [1] turned out to be 4.54 nM. Besides, the “GLP1R EC50 human” value in test [2] is 3.59 nM.

B1: TP638 (peptide)
peptide: H[Aib]QGTFTSDYSKYLDARAAQDFV[Phe(4-CH2NH2)]([AEEA-γGlu-C18 diacid])WLLDT-NH2
modifications: N-terminus assumed
SMILES: CC(C)C[C@H](NC(=O)[C@H](Cc1ccc(O)cc1)NC(=O)[C@H](CCCCN)NC(=O)[C@H](CO)NC(=O)[C@H](Cc1ccc(O)cc1)NC(=O)[C@H](CC(=O)O)NC(=O)[C@H](CO)NC(=O)[C@@H](NC(=O)[C@H](Cc1ccccc1)NC(=O)[C@@H](NC(=O)CNC(=O)[C@H](CCC(N)=O)NC(=O)C(C)(C)NC(=O)[C@@H](N)Cc1c[nH]cn1)[C@@H](C)O)[C@@H](C)O)C(=O)N[C@@H](CC(=O)O)C(=O)N[C@@H](C)C(=O)N[C@@H](CCCNC(=N)N)C(=O)N[C@@H](C)C(=O)N[C@@H](C)C(=O)N[C@@H](CCC(N)=O)C(=O)N[C@@H](CC(=O)O)C(=O)N[C@@H](Cc1ccccc1)C(=O)N[C@H](C(=O)N[C@@H](Cc1ccc(CNC(=O)COCCOCCNC(=O)CC[C@H](NC(=O)CCCCCCCCCCCCCCCCC(=O)O)C(=O)O)cc1)C(=O)N[C@@H](Cc1c[nH]c2ccccc12)C(=O)N[C@@H](CC(C)C)C(=O)N[C@@H](CC(C)C)C(=O)N[C@@H](CC(=O)O)C(=O)N[C@H](C(N)=O)[C@@H](C)O)C(C)C
For B1, the “GCGR EC50 human” value in test [1] was 5.05 nM. In addition, in test [2], the “GLP1R EC50 human” value was 1.55 nM.

B2: TP639 (peptide)
peptide: H[Aib]QGTFTSDYSKYLDARAAQDFV[Phe(4-CH2NH2)]([γGlu-C18 diacid])WLLDT-NH2
modifications: N-terminus assumed
SMILES: CC(C)C[C@H](NC(=O)[C@H](Cc1ccc(O)cc1)NC(=O)[C@H](CCCCN)NC(=O)[C@H](CO)NC(=O)[C@H](Cc1ccc(O)cc1)NC(=O)[C@H](CC(=O)O)NC(=O)[C@H](CO)NC(=O)[C@@H](NC(=O)[C@H](Cc1ccccc1)NC(=O)[C@@H](NC(=O)CNC(=O)[C@H](CCC(N)=O)NC(=O)C(C)(C)NC(=O)[C@@H](N)Cc1c[nH]cn1)[C@@H](C)O)[C@@H](C)O)C(=O)N[C@@H](CC(=O)O)C(=O)N[C@@H](C)C(=O)N[C@@H](CCCNC(=N)N)C(=O)N[C@@H](C)C(=O)N[C@@H](C)C(=O)N[C@@H](CCC(N)=O)C(=O)N[C@@H](CC(=O)O)C(=O)N[C@@H](Cc1ccccc1)C(=O)N[C@H](C(=O)N[C@@H](Cc1ccc(CNC(=O)CC[C@H](NC(=O)CCCCCCCCCCCCCCCCC(=O)O)C(=O)O)cc1)C(=O)N[C@@H](Cc1c[nH]c2ccccc12)C(=O)N[C@@H](CC(C)C)C(=O)N[C@@H](CC(C)C)C(=O)N[C@@H](CC(=O)O)C(=O)N[C@H](C(N)=O)[C@@H](C)O)C(C)C
With B2, the “GCGR EC50 human” value in test [1] is 3.38 nM. The “GLP1R EC50 human” value in test [2] turned out to be 2.09 nM.

B3: TP659 (peptide)
peptide: HXQGTFTSDXSKYLDXRAAQDFVQWLLAX
modifications: D-Ser (s) at 2; pAF(PEG2PEG2γEC16OH) at 10; Aib (U) at 16; KγE at 30-31 (γ-glutamic acid after Lys 30); C-terminal amide
For B3, the “GCGR EC50 human” value in test [1] was 0.46 nM. The “GLP1R EC50 human” value in test [2] was above 4.9 nM.

For the molecule H[Aib]QGTFTSD[Phe(4-CH2NH2)]([AEEA-AEEA-γGlu-C16 diacid])SKYLD[Aib]RAAQDFVQWL[Met(O2)]ATK-{γGlu-NH2} [TP658], the “GCGR EC50 human” value in test [1] was 3.2 nM. In addition, the “GLP1R EC50 human” value in test [2] stood at 1.66 nM.

As to H[Aib]QGTFTSDYSKYLD[Aib]RAAK([AEEA-AEEA-γGlu-C16 diacid])DFVQWLLATK-{γGlu-NH2} [TP662], the “GCGR EC50 human” value in test [1] was determined as 1.45 nM. Besides, the “GLP1R EC50 human” value in test [2] was 0.52 nM.
